B1: Pistol ribozyme (parent)
chain: GGGUCGUUGUUCCAUAAUCGCGUGGAUAUGGCACGCAAGUUUCUACCGGGCACCGUAAAUGUCCGACUGGAGCCGUUCGGGCGGCUAUAAACAGACCUCAGGCCCGAAGCGUGGCGGCACCUGCCGCCGGUGGUAAAAAAGAUCGGAAGAGCACACGUCU

Variants of B1 are the subject of the data set. The data set is described as follows: aptazyme ON/OFF ratio, guanine; higher = stronger switching; co-transcriptional cleavage with and without guanine.
On to U7G U8G G9U U11A, for which the “aptazyme ON/OFF ratio” value came to 2.18. In the case of U7G C12U C13U it was 1.36; in that of U10A U11G C12A C13U, 1.46; in that of G9U U10G C12U C13G, 1.66. For the variant U10C C12A C13U, the “aptazyme ON/OFF ratio” value turned out to be 1.18. On to U7G U8G U10C U11A C12U C13A, for which the “aptazyme ON/OFF ratio” value was found to be 1.37.

Regarding U7C U10C U11C C12U C13G, the “aptazyme ON/OFF ratio” value turned out to be 1.24. In the case of U7C U8A G9C U10A C12G it was 1.26. For U7A U8G C13A the value was 1.42; for U8A G9C U10A, 1.38.

Regarding U7C G9U U10C U11A C12A, the “aptazyme ON/OFF ratio” value was 1.25. As to G9U U10C C12U C13A, the “aptazyme ON/OFF ratio” value amounted to 1.69. In the case of U8C G9C U10A U11A C13A it was 1.15; in that of U8C G9C U10A U11A C13U, 1.09. U7C U8C G9U U11A C12G C13G: the “aptazyme ON/OFF ratio” value was 1.16. As for U7C U8C G9U U11A C12G C13A, the “aptazyme ON/OFF ratio” value came to 1.07. As for U7A U11A C12A C13G, the “aptazyme ON/OFF ratio” value was found to be 1.26.

U7C G9U U10G U11G C12U: the “aptazyme ON/OFF ratio” value worked out at 1.16. U8A G9C U10C U11A C13A: the “aptazyme ON/OFF ratio” value was 1.16. With U8G G9C U10A U11A C12G C13A, the “aptazyme ON/OFF ratio” value came to 1.11. As for U7G U8C G9C U10A C12G C13G, the “aptazyme ON/OFF ratio” value was found to be 1.05. In the case of U7G U8A G9U U10C U11A C13G it was 1.05; in that of U8C G9C U10A U11G C12A, 1.07; in that of U7G U8G G9A U10C U11A C12A C13U, 1.25.

Consider G9C C12A C13A, for which the “aptazyme ON/OFF ratio” value turned out to be 1.29. Take U7C U8G G9U U10G U11A C13G: the “aptazyme ON/OFF ratio” value worked out at 1.08. Consider G9U U10G C12A C13G, for which the “aptazyme ON/OFF ratio” value worked out at 1.17. Take U7A G9C U10G C13A: the “aptazyme ON/OFF ratio” value is 1.15. For the variant U7C U8C U11C C12G C13U, the “aptazyme ON/OFF ratio” value came to 1.33. As for U7G G9U U10C C12G C13A, the “aptazyme ON/OFF ratio” value turned out to be 1.27. Take G9A U10G U11G C12A C13A: the “aptazyme ON/OFF ratio” value was 1.19.

As to U7A G9U U11A C12A C13G, the “aptazyme ON/OFF ratio” value was determined as 1.16. With U7C U8C G9A U10C U11C C12G, the “aptazyme ON/OFF ratio” value stood at 1.19. With U8A G9A U10A U11G C12A, the “aptazyme ON/OFF ratio” value came out at 1.01. For U7A U8G G9U U11A C12G the value was 1.38; for U7C U8G G9C U10A U11G C12U C13A, 1.16. Consider U7A U8A G9U U10C C12G, for which the “aptazyme ON/OFF ratio” value stood at 1.43. For U7C G9A U10A U11G C12U the value was 1.31.

Regarding U8G G9A U10G U11C C12A C13A, the “aptazyme ON/OFF ratio” value worked out at 1.18. In the case of U7C U8G G9U U10G U11C C12G it was 1.18.

As for U7G U8G G9U U10C C12A, the “aptazyme ON/OFF ratio” value turned out to be 1.38. For U7A U8A G9A U10G C12U the value was 1.14; for U7G G9U U10G U11A C12A C13A, 1.16; for U7G U8A G9A U10A U11C C12A C13G, 1.12. In the case of U7A U10A U11A C13G it was 1.15; in that of U7G G9U U10C U11G C12G C13A, 1.13. For the variant U7G U8G G9A U10A U11C C12A C13G, the “aptazyme ON/OFF ratio” value was 1.17. U7G U8C U11G C13A: the “aptazyme ON/OFF ratio” value came out at 1.29. For the variant U8G G9C U10C U11G C12A C13U, the “aptazyme ON/OFF ratio” value turned out to be 1.04. Take U7A U8C U10C U11C C12A C13A: the “aptazyme ON/OFF ratio” value was 1.09. For U8A G9C U10G U11A C12G the value was 1.28; for G9U U11A C12A C13A, 1.59; for U8C U10C U11C C12G, 1.18. In the case of U7G G9U U10A U11C C12A C13A it was 1.24; in that of U7A U8G G9U U10G U11A C12U, 1.27; in that of U7G U8C G9C U10A C12A C13G, 1.08.

For the variant U8A G9C U11G C12U C13A, the “aptazyme ON/OFF ratio” value was 1.31.

For U7C G9U U10G U11A C12U C13A, the “aptazyme ON/OFF ratio” value was determined as 1.19. Turning to U7G U8A U10A U11A C12U, the “aptazyme ON/OFF ratio” value is 1.12. In the case of U7A U8A G9A U11C C12G C13U it was 1.09; in that of U8C G9C U10A U11A C12U C13A, 1.09.

On to U7A U8C G9U U10G U11C C13G, for which the “aptazyme ON/OFF ratio” value was found to be 1.08. With U7C U8C G9A U10G U11G C12A C13G, the “aptazyme ON/OFF ratio” value was 1.1. Regarding U7G U8G G9A U11C C12G C13U, the “aptazyme ON/OFF ratio” value is 1.35. For U7A G9A U10G U11A C12A C13U the value was 1.21. As to U7G U8A G9A U11G C12A, the “aptazyme ON/OFF ratio” value stood at 1.08. In the case of U7C G9U C13G, the “aptazyme ON/OFF ratio” value is 1.04. For the variant U7G U8C G9C U10C U11A C12G C13U, the “aptazyme ON/OFF ratio” value was found to be 1.12.

For U7C U8G C13A, the “aptazyme ON/OFF ratio” value stood at 1.25. For the variant U7C U8C G9C U11G C12A C13G, the “aptazyme ON/OFF ratio” value is 1.1. As to U7A G9C U10A U11C C12A C13U, the “aptazyme ON/OFF ratio” value was 1.09. For G9C U10G, the “aptazyme ON/OFF ratio” value was 2.17. In the case of U7A U8G G9A U10C U11C C12G C13G it was 1.09; in that of U7A U8C G9C U10A U11C C12U C13U, 1.22.

As to U7G G9C U11A C12U, the “aptazyme ON/OFF ratio” value came out at 1.65. In the case of U8A G9C U10G U11C, the “aptazyme ON/OFF ratio” value stood at 1.05.

Take G9C U10C C13G: the “aptazyme ON/OFF ratio” value was found to be 1.06. For U8A G9C U10C C12G C13A the value was 1.07; for U7C U8C G9U U10C U11C C12U C13G, 1.1. For the variant U7C U8G U10C C12G C13U, the “aptazyme ON/OFF ratio” value was found to be 1.35. Turning to U8C U11A C12U C13U, the “aptazyme ON/OFF ratio” value amounted to 1.13. In the case of U7C G9C U10C U11A C12A, the “aptazyme ON/OFF ratio” value worked out at 1.09.

U7C U8G G9A U10G C12G C13G: the “aptazyme ON/OFF ratio” value came to 1.1. Regarding U8G C12A C13G, the “aptazyme ON/OFF ratio” value came to 1.13.

The values are drawn from the RNAGym collection of RNA variant scans (doi:10.1021/acssynbio.7b00057).
